From US20220411477A1 (MONASH UNIVERSITY, published 2022)

T1: AMH-specific type II receptor, AMHR2 (UniProt Q16671 18-573, limits assumed)
T1 sequence (looked up): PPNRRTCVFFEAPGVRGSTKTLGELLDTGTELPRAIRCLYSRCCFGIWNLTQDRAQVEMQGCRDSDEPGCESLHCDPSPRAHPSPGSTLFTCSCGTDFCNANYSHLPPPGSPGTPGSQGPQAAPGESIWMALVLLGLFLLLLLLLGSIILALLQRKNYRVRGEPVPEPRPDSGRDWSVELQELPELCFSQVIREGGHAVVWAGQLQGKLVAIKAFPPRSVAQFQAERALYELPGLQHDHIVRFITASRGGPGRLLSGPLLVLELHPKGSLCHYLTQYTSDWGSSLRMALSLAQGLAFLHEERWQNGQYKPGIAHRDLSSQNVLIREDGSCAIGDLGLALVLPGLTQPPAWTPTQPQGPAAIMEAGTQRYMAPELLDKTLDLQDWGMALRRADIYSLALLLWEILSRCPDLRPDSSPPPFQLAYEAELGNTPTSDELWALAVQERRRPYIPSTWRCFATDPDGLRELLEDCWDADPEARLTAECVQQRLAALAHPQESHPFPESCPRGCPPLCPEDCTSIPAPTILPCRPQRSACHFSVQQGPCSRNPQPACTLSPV


target: T1, AMH-specific type II receptor, AMHR2; test: cell-based or functional assay

Binder	AMH activity relative to wild type (%)	EC50 in COV434 BRE-Luc assay [ng/mL]	Maximal response relative to wild-type (%)	Potency relative to ‘wild-type’
hAMH+SCUT+RSA (Wild type) AMH (ligand) chain 1: HHHHHHPAVGTSGLIFREDLDWPPGSPQEPLCLVALGGDSNGSSSPLRVVGALSAYEQAFLGAVQRARWGPRDLATFGVCNTGDRQAALPSLRRLGAWLQDPGGQRLVVLHLEEVTWEPTPSLRFQEPPPGGAGPPELALLVLYPGPGPEVTVTRAGLPGAQSLCPSRDTRYLVLAVDRPAGAWRGSGLALTLQPRGEDSRLSTARLQALLFGDDHRCFTRMTPALLLLPRSEPAPLPAHGQLDTVPFPPPRPSAELEESPPSADPFLETLTRLVRALRVPPARASAPRLALDPDALAGFPQGLVNLSDPAALERLLDGEEPLLLLLRPTAATTGDPAPLHDPTSAPWATALARRVAAELQAAAAELRSLPGLPPATAPLLARLLALCPGGPGGLGDPLRALLLLKALQGLRVEWRGRDPRGPGISSRKKR chain 2: SVSSSAGATAADGPCALRELSVDLRAERSVLIPETYQANNCQGVCGWPQSDRNPRYGNHVVLLLKMQARGAALARPPCCVPTAYAGKLLISLSEERISAHHVPNMVATECGCR	100	~6	–	–
hAMH+SCUT+RSA G533S mutant (ligand) chain 1: HHHHHHPAVGTSGLIFREDLDWPPGSPQEPLCLVALGGDSNGSSSPLRVVGALSAYEQAFLGAVQRARWGPRDLATFGVCNTGDRQAALPSLRRLGAWLQDPGGQRLVVLHLEEVTWEPTPSLRFQEPPPGGAGPPELALLVLYPGPGPEVTVTRAGLPGAQSLCPSRDTRYLVLAVDRPAGAWRGSGLALTLQPRGEDSRLSTARLQALLFGDDHRCFTRMTPALLLLPRSEPAPLPAHGQLDTVPFPPPRPSAELEESPPSADPFLETLTRLVRALRVPPARASAPRLALDPDALAGFPQGLVNLSDPAALERLLDGEEPLLLLLRPTAATTGDPAPLHDPTSAPWATALARRVAAELQAAAAELRSLPGLPPATAPLLARLLALCPGGPGGLGDPLRALLLLKALQGLRVEWRGRDPRGPGISSRKKR chain 2: SVSSSAGATAADGPCALRELSVDLRAERSVLIPETYQANNCQGVCGWPQSDRNPRYGNHVVLLLKMQARGAALARPPCCVPTAYASKLLISLSEERISAHHVPNMVATECGCR	350	~1.8	~140	~3 fold more potent
hAMH+SCUT+RSA G533K mutant (ligand) chain 1: HHHHHHPAVGTSGLIFREDLDWPPGSPQEPLCLVALGGDSNGSSSPLRVVGALSAYEQAFLGAVQRARWGPRDLATFGVCNTGDRQAALPSLRRLGAWLQDPGGQRLVVLHLEEVTWEPTPSLRFQEPPPGGAGPPELALLVLYPGPGPEVTVTRAGLPGAQSLCPSRDTRYLVLAVDRPAGAWRGSGLALTLQPRGEDSRLSTARLQALLFGDDHRCFTRMTPALLLLPRSEPAPLPAHGQLDTVPFPPPRPSAELEESPPSADPFLETLTRLVRALRVPPARASAPRLALDPDALAGFPQGLVNLSDPAALERLLDGEEPLLLLLRPTAATTGDPAPLHDPTSAPWATALARRVAAELQAAAAELRSLPGLPPATAPLLARLLALCPGGPGGLGDPLRALLLLKALQGLRVEWRGRDPRGPGISSRKKR chain 2: SVSSSAGATAADGPCALRELSVDLRAERSVLIPETYQANNCQGVCGWPQSDRNPRYGNHVVLLLKMQARGAALARPPCCVPTAYAKKLLISLSEERISAHHVPNMVATECGCR	500	~1.2	~190	~5 fold more potent
hAMH+SCUT+RSA G533H mutant (ligand) chain 1: HHHHHHPAVGTSGLIFREDLDWPPGSPQEPLCLVALGGDSNGSSSPLRVVGALSAYEQAFLGAVQRARWGPRDLATFGVCNTGDRQAALPSLRRLGAWLQDPGGQRLVVLHLEEVTWEPTPSLRFQEPPPGGAGPPELALLVLYPGPGPEVTVTRAGLPGAQSLCPSRDTRYLVLAVDRPAGAWRGSGLALTLQPRGEDSRLSTARLQALLFGDDHRCFTRMTPALLLLPRSEPAPLPAHGQLDTVPFPPPRPSAELEESPPSADPFLETLTRLVRALRVPPARASAPRLALDPDALAGFPQGLVNLSDPAALERLLDGEEPLLLLLRPTAATTGDPAPLHDPTSAPWATALARRVAAELQAAAAELRSLPGLPPATAPLLARLLALCPGGPGGLGDPLRALLLLKALQGLRVEWRGRDPRGPGISSRKKR chain 2: SVSSSAGATAADGPCALRELSVDLRAERSVLIPETYQANNCQGVCGWPQSDRNPRYGNHVVLLLKMQARGAALARPPCCVPTAYAHKLLISLSEERISAHHVPNMVATECGCR	100	~6	–	–
hAMH+SCUT+RSA L535M mutant (ligand) chain 1: HHHHHHPAVGTSGLIFREDLDWPPGSPQEPLCLVALGGDSNGSSSPLRVVGALSAYEQAFLGAVQRARWGPRDLATFGVCNTGDRQAALPSLRRLGAWLQDPGGQRLVVLHLEEVTWEPTPSLRFQEPPPGGAGPPELALLVLYPGPGPEVTVTRAGLPGAQSLCPSRDTRYLVLAVDRPAGAWRGSGLALTLQPRGEDSRLSTARLQALLFGDDHRCFTRMTPALLLLPRSEPAPLPAHGQLDTVPFPPPRPSAELEESPPSADPFLETLTRLVRALRVPPARASAPRLALDPDALAGFPQGLVNLSDPAALERLLDGEEPLLLLLRPTAATTGDPAPLHDPTSAPWATALARRVAAELQAAAAELRSLPGLPPATAPLLARLLALCPGGPGGLGDPLRALLLLKALQGLRVEWRGRDPRGPGISSRKKR chain 2: SVSSSAGATAADGPCALRELSVDLRAERSVLIPETYQANNCQGVCGWPQSDRNPRYGNHVVLLLKMQARGAALARPPCCVPTAYAGKMLISLSEERISAHHVPNMVATECGCR	100	~6	–	–
hAMH+SCUT+RSA double mutant G533A+L535M (ligand) chain 1: HHHHHHPAVGTSGLIFREDLDWPPGSPQEPLCLVALGGDSNGSSSPLRVVGALSAYEQAFLGAVQRARWGPRDLATFGVCNTGDRQAALPSLRRLGAWLQDPGGQRLVVLHLEEVTWEPTPSLRFQEPPPGGAGPPELALLVLYPGPGPEVTVTRAGLPGAQSLCPSRDTRYLVLAVDRPAGAWRGSGLALTLQPRGEDSRLSTARLQALLFGDDHRCFTRMTPALLLLPRSEPAPLPAHGQLDTVPFPPPRPSAELEESPPSADPFLETLTRLVRALRVPPARASAPRLALDPDALAGFPQGLVNLSDPAALERLLDGEEPLLLLLRPTAATTGDPAPLHDPTSAPWATALARRVAAELQAAAAELRSLPGLPPATAPLLARLLALCPGGPGGLGDPLRALLLLKALQGLRVEWRGRDPRGPGISSRKKR chain 2: SVSSSAGATAADGPCALRELSVDLRAERSVLIPETYQANNCQGVCGWPQSDRNPRYGNHVVLLLKMQARGAALARPPCCVPTAYAAKMLISLSEERISAHHVPNMVATECGCR	100	~6	–	–
hAMH mutant L536M (ligand) chain 1: HHHHHHPAVGTSGLIFREDLDWPPGSPQEPLCLVALGGDSNGSSSPLRVVGALSAYEQAFLGAVQRARWGPRDLATFGVCNTGDRQAALPSLRRLGAWLQDPGGQRLVVLHLEEVTWEPTPSLRFQEPPPGGAGPPELALLVLYPGPGPEVTVTRAGLPGAQSLCPSRDTRYLVLAVDRPAGAWRGSGLALTLQPRGEDSRLSTARLQALLFGDDHRCFTRMTPALLLLPRSEPAPLPAHGQLDTVPFPPPRPSAELEESPPSADPFLETLTRLVRALRVPPARASAPRLALDPDALAGFPQGLVNLSDPAALERLLDGEEPLLLLLRPTAATTGDPAPLHDPTSAPWATALARRVAAELQAAAAELRSLPGLPPATAPLLARLLALCPGGPGGLGDPLRALLLLKALQGLRVEWRGRDPRGPGISSRKKR chain 2: SVSSSAGATAADGPCALRELSVDLRAERSVLIPETYQANNCQGVCGWPQSDRNPRYGNHVVLLLKMQARGAALARPPCCVPTAYAGKLMISLSEERISAHHVPNMVATECGCR	–	–	~80	~3 fold less potent
hAMH mutant L536I (ligand) chain 1: HHHHHHPAVGTSGLIFREDLDWPPGSPQEPLCLVALGGDSNGSSSPLRVVGALSAYEQAFLGAVQRARWGPRDLATFGVCNTGDRQAALPSLRRLGAWLQDPGGQRLVVLHLEEVTWEPTPSLRFQEPPPGGAGPPELALLVLYPGPGPEVTVTRAGLPGAQSLCPSRDTRYLVLAVDRPAGAWRGSGLALTLQPRGEDSRLSTARLQALLFGDDHRCFTRMTPALLLLPRSEPAPLPAHGQLDTVPFPPPRPSAELEESPPSADPFLETLTRLVRALRVPPARASAPRLALDPDALAGFPQGLVNLSDPAALERLLDGEEPLLLLLRPTAATTGDPAPLHDPTSAPWATALARRVAAELQAAAAELRSLPGLPPATAPLLARLLALCPGGPGGLGDPLRALLLLKALQGLRVEWRGRDPRGPGISSRKKR chain 2: SVSSSAGATAADGPCALRELSVDLRAERSVLIPETYQANNCQGVCGWPQSDRNPRYGNHVVLLLKMQARGAALARPPCCVPTAYAGKLIISLSEERISAHHVPNMVATECGCR	–	–	~65	~7 fold less potent
hAMH mutant S538A (ligand) chain 1: HHHHHHPAVGTSGLIFREDLDWPPGSPQEPLCLVALGGDSNGSSSPLRVVGALSAYEQAFLGAVQRARWGPRDLATFGVCNTGDRQAALPSLRRLGAWLQDPGGQRLVVLHLEEVTWEPTPSLRFQEPPPGGAGPPELALLVLYPGPGPEVTVTRAGLPGAQSLCPSRDTRYLVLAVDRPAGAWRGSGLALTLQPRGEDSRLSTARLQALLFGDDHRCFTRMTPALLLLPRSEPAPLPAHGQLDTVPFPPPRPSAELEESPPSADPFLETLTRLVRALRVPPARASAPRLALDPDALAGFPQGLVNLSDPAALERLLDGEEPLLLLLRPTAATTGDPAPLHDPTSAPWATALARRVAAELQAAAAELRSLPGLPPATAPLLARLLALCPGGPGGLGDPLRALLLLKALQGLRVEWRGRDPRGPGISSRKKR chain 2: SVSSSAGATAADGPCALRELSVDLRAERSVLIPETYQANNCQGVCGWPQSDRNPRYGNHVVLLLKMQARGAALARPPCCVPTAYAGKLLIALSEERISAHHVPNMVATECGCR	–	–	~65	~4 fold less potent
